The record followed here is patent US20170022553, “NUCLEIC ACID SEQUENCING METHODS AND SYSTEMS” (OMNIOME, INC., published 2017).

For data set [1], the target named is T1, Bsu DNA polymerase I large fragment (Bacillus subtilis, UniProt O34996 O34996:297-880). Put plainly: BLI; correct dNTP, Ni(II), 200 mM KCl, 200 mM K glutamate, 30 C. The following applies: tags: New England Biolabs M0330L; label: 5' biotin on template; primed template with 5' template overhang. As for the experimental part:
Primer-template duplex was diluted (100 nM) into Annealing Buffer. Wash buffer was 20 mM Tris, pH 8.0, 200 mM KCl, 200 mM potassium glutamate, 0.01% (v/v), Tween-20, 100 μg/mL bovine serum albumin, 1.0 mM dithiothreitol. Binding Buffer was Wash Buffer containing 2.0 mM Ni(II)SO₄. Reaction Buffer was 20 mM Tris, pH 8.0, 50 mM KCl, MgCl₂ (10 mM), 0.01% (v/v) Tween-20, 100 μg/mL bovine serum albumin, 1.0 mM dithiothreitol. EDTA Wash Buffer was Binding Buffer containing 1.0 mM EDTA. Buffer containing Primer-Template (PT), Binding buffer containing one dNTP and Reaction Buffer were loaded (200 μL/well) into a Greiner 96-well black microplate (Sigma-Aldrich, St. Louis, Mo.; catalog number M9685), and PCR-grade mineral oil (Sigma-Aldrich, St. Louis, Mo.; catalog no. M8662) was applied (75 μL/well). High-precision streptavidin biosensors (Pall ForteBio Corp., Menlo Park, Calif.; catalog number 18-5117) were re-hydrated in Annealing Buffer for approximately 10 minutes before use. The Octet QK biosensor system (Pall ForteBio Corp., Menlo Park, Calif.) was set for 30° C. operation and was programmed to coat the biosensors with Primer-Template and wash away unbound Primer-Template with Wash Buffer. […]

Data set [2] addresses T1, Bsu DNA polymerase I large fragment. Put plainly: BLI; dGTP, 1 mM Ni(II), 30 C; lower amplitude, higher kobs than ALK-G1. The following applies: tags: New England Biolabs M0330L; label: 5' biotin on template; primed template with 5' template overhang. As for the experimental part:
(§1) Primer-template duplex was diluted (100 nM) into Annealing Buffer. Wash buffer was 30 mM Tris, pH 8.0, 160 mM KCl, 160 mM potassium glutamate, 0.01% (v/v), Tween-20, 100 μg/mL bovine serum albumin, 1.0 mM dithiothreitol. Binding Buffer was Wash Buffer containing Bsu Pol I (68 Unit/mL) 100 μM dGTP+1.0 mM Ni(II)SO₄. Reaction Buffer was Wash Buffer containing Bsu (1 U/mL), MgCl₂ (80 μM), dGTP (28.1 μM), α-S-dGTP (162 μM). EDTA Wash Buffer was Wash Buffer without Ni(II)SO₄ but containing 1.0 mM EDTA. Buffer containing Primer-Template (PT), Binding Buffer and Reaction Buffer containing were loaded (200 μL/well) into a Greiner 96-well black microplate (Sigma-Aldrich, St. Louis, Mo.; catalog number M9685), and PCR-grade mineral oil (Sigma-Aldrich, St. Louis, Mo.; catalog no. M8662) was applied (75 μL/well). […]
(§2) In assays for binding to biosensor coated with ssDNA primer-template, Bsu Pol I enzyme bound strongly to the primer/template-coated biosensor in the presence of correct dGTP (FIGS. 18A and 18B). […] The association phase for formation of the ternary complex was analyzed for how the association kinetic parameters may be affected by the number of nucleotides for incorporation into the homopolymer of the primer/template.
(In general: Biolayer interferometry detects binding as a change in optical thickness at a sensor tip.)

For data set [3] the target is unchanged. The data set is described as follows: BLI; dGTP, 1 mM Ni(II), 30 C; highest amplitude. Particulars: tags: New England Biolabs M0330L; label: 5' biotin on template; primed template with 5' template overhang. Here is the method: as §1, §2
Data set [4] addresses Bst DNA polymerase, full length (Bacillus stearothermophilus, UniProt P52026 P52026:1-876). Put plainly: BLI; correct dNTP, 300 mM KCl, 30 C; minimal binding without dNTP. The following applies: tags: New England Biolabs M0328L; label: 5' biotin on template; primed template with 5' template overhang. As for the experimental part: Primer-template duplex was diluted (100 μM) into Annealing Buffer. Binding buffer was 50 mM Tris, pH 8.0, 300 mM KCl, 0.1% (v/v) Triton-X100, 100 μg/mL bovine serum albumin. Reaction Buffer was Binding Buffer containing 10 mM MgCl₂. Buffer containing Primer-Template (PT), Binding buffer containing one dNTP, and Reaction Buffer were loaded (200 μL/well) into a Greiner 96-well black microplate (Sigma-Aldrich, St. Louis, Mo.; catalog number M9685), and PCR-grade mineral oil (Sigma-Aldrich, St. Louis, Mo.; catalog no. M8662) was applied (75 μL/well). Streptavidin (SA) Biosensors (Pall ForteBio Corp., Menlo Park, Calif.; catalog number 18-5019) were re-hydrated in Annealing Buffer for approximately 10 minutes before use. The Octet QK biosensor system (Pall ForteBio Corp., Menlo Park, Calif.) was set for 30° C. operation and was programmed to coat the biosensors with Primer-Template and wash away unbound Primer-Template with Binding Buffer. Biosensors were transferred to Binding Buffer containing 136 Unit/mL Bst DNA Polymerase and 200 μM dNTP (dATP, dTTP, dGTP or dCTP) as indicated (association phase) followed by Reaction Buffer for dNTP incorporation. Biosensors were transferred to Reaction Buffer containing Bst DNA Polymerase (136 Unit/mL) without dNTP to promote nick translation via 5′-3′ exonuclease activity. […]

Positions count from the first letter of the chain named. Names may count otherwise.

T1 sequence (O34996 297-880, one chain of several): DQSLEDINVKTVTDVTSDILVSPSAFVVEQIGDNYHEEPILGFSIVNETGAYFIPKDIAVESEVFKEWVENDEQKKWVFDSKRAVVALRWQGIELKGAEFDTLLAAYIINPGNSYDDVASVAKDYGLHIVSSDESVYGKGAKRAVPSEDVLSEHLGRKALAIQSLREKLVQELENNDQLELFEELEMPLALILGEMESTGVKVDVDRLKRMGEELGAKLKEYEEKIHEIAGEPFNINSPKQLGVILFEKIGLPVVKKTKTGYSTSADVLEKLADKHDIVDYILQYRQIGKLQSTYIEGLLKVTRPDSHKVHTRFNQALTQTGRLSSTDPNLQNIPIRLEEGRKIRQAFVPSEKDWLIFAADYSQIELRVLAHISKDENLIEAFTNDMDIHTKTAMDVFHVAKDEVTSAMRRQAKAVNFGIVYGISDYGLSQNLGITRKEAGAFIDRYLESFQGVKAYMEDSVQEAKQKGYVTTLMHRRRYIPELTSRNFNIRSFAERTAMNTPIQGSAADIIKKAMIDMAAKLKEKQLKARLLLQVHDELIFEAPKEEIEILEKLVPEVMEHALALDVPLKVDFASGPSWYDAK
Sequence of Bst DNA polymerase, full length (P52026 whole entry, one chain of several): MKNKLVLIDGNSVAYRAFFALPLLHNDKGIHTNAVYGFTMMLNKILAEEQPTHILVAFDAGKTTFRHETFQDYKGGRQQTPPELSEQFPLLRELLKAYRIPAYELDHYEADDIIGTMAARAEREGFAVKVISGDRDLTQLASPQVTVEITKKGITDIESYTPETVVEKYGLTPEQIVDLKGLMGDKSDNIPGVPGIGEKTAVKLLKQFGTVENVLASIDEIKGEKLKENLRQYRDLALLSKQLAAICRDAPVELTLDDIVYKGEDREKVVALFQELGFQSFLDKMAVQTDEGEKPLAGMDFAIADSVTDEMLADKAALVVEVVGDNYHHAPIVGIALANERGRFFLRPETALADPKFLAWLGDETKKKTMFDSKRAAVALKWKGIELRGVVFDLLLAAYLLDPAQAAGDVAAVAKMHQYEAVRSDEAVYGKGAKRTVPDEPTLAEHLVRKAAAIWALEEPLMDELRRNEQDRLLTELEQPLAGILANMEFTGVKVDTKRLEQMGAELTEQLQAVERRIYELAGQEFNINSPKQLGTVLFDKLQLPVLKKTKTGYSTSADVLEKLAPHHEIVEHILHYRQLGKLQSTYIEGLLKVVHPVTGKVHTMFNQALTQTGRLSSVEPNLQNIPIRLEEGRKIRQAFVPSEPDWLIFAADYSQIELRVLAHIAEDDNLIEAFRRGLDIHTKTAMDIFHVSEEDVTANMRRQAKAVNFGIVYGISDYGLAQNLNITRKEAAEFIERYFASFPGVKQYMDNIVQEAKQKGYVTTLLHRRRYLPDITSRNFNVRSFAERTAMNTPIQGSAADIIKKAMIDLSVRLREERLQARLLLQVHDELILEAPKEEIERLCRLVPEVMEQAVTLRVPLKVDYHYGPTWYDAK

B1: ALK C4493A/4496-4509AS primer-template (dsDNA)
DNA 1: GTGAGCCTGCAATCCCTGCCCCGGTTCATCCTGATGGAGCTCATGGCGGG
DNA 2: CCCGCCATGAGCTC
modifications: 3' inverted dT on template
For B1, the binding result in data set [1] is recorded as “binds”.

B2: ALK-G4 primer-template (dsDNA)
DNA 1: B1 DNA 1 with A34C
DNA 2: CCCGCCATGAGCTCCAGCAGGATGAACC
modifications: 3' inverted dT on template
Turning to B2, the binding result in data set [2] is listed as “binds”.

B3: ALK-G1 primer-template (dsDNA)
DNA 1: B1 DNA 1 with A34C
DNA 2: CCCGCCATGAGCTCCA
modifications: 3' inverted dT on template
On to B3, for which, in data set [3], the binding result is given as “binds”.

B4: ALK wild-type 4460-4509S/4496-4509AS primer-template (dsDNA)
DNA 1: B1 DNA 1 with A34C
DNA 2: CCCGCCATGAGCTC
modifications: 3' inverted dT on template
For the molecule B4, in data set [4], the binding result is “binds”.

B5: ALK-G2 primer-template (dsDNA)
DNA 1: B1 DNA 1 with A34C
DNA 2: CCCGCCATGAGCTCCAGCA
modifications: 3' inverted dT on template
B5: the binding result in data set [2] is “binds”.
